{"source": "the nanobody polyreactivity screen of Harvey et al. (2022)", "data": [{"assay": "yeast display, Sf9 membrane polyspecificity reagent, FACS + sequencing; frameworks hold sequencing errors", "summary_of_the_method": "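Galactose-induced (36–48 hours) yeast carrying a synthetic nanobody display library were exposed to 10% biotinylated, detergent-solubilized Sf9 membrane reagent at 4 °C for 1 hour. FACS followed streptavidin microbead enrichment, using low and high (top ~1%) gates for expression (anti-HA) and reagent binding (streptavidin). Colony PCR, MiSeq 2 × 250 sequencing and CDR-length filtering followed. Labels for polyreactivity reflect the gate of origin.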", "values": [{"sequence": "QVQLVESGGGLVQAGGSLGLSCAASGRTFSYYAMGWYRQAPGKERELVAAISASGGRTYYADSVKGRFTISRDNAKNTDYLQMNSLTPEDTAVYYCAAGSYQRYAFDYWGQGTQVTVSS", "polyreactivity (PSR sort gate)": "high polyreactivity"}, {"sequence": "QVQLVESGGGLVQAGGSLGLSCAASGSIFSRNTMGWYRPARGKERELVAAITSSGGNTYYADSVKGRFTISRDNAKNTVYLQMNSLKPDDTAVYYCAADVAQVGYQVGDSEIYPGYEDWGQGSQVTVSS", "polyreactivity (PSR sort gate)": "low polyreactivity"}, {"sequence": "QVQLVESGGGLVQAGGSLGLSCAASGYTFDHNAMGWYRQAPGKERELVAAINWSGGSTYYADSVKVRFTISRDNAKNTVYLQMKSLKPEDTAVYYCARYRVLASRVDYWGQGTQVTVSS", "polyreactivity (PSR sort gate)": "high polyreactivity"}, {"sequence": "QVQLVESGGGLVQAGGSLGLSCAATGSIFNPYAMGWYRQAPGKVRELVAAISSTGSTYYADSVKGRFTISRDNAKNTVYLQMISLKPEDTAVYYCAADWYWYWFSTYDYWGQGTEVTVSS", "polyreactivity (PSR sort gate)": "low polyreactivity"}, {"sequence": "QVQLVESGGGLVQAGGSLLLSCAASGFIFGPYALGWYRQAPGKERELVAAITWRGGRTYYADSVKGRFTISRDNAKNTVYLQMNSLKPEDTAVYYCAADYPYAMDYWGQGTQVTVSS", "polyreactivity (PSR sort gate)": "high polyreactivity"}, {"sequence": "QVQLVESGGGLVQAGGSLLLSCAASGFIFPPYDMGWYRQAPGKEMELVAGISDVGTTYYADSVKGRFTISRDNAKNTVYLQMNSLKPEDTAVYYCAAESQGDDQFWTGGYDSWGQGTQVTVSS", "polyreactivity (PSR sort gate)": "low polyreactivity"}, {"sequence": "QVQLVESGGGLVQAGGSLLLSCAASGGTFYYYAMGWYRQAPGKERELVASISSRGGSTYYADSVKGRFTISRDNAKNTVYLQMNSLKPEDTAVYYCAARSLYRGFGYWGQGTQVTVSS", "polyreactivity (PSR sort gate)": "high polyreactivity"}, {"sequence": "QVQLVESGGGLVQAGGSLLLSCAASGGTFYYYTMGWYRQAPGKERELVAAISWSGGSTYYADSVKGRFTISRDNAKNTVYLQMNSLKPEDTAVYYCAALAYVSDYDYWGQGTQVTVSS", "polyreactivity (PSR sort gate)": "high polyreactivity"}, {"sequence": "QVQLVESGGGLVQAGGSLLLSCAASGITFFTYAKGWYRQAPGKERELDAAISGSGGSTYYADSVKGRFTISRDNAKKTVYLQMNSLKPEDTAVYYCAAERENGDHYRYYYWGQGTQVTVSS", "polyreactivity (PSR sort gate)": "low polyreactivity"}, {"sequence": "QVQLVESGGGLVQAGGSLLLSCAASGITFPKYAMGWYRQAPGKERELVAAITKSGGSTYYADSVKGRFTISRDHAKNTVYFQMNSLKPEDTAVYYYAARPRYGEYDYWGQGTQVTVSS", "polyreactivity (PSR sort gate)": "high polyreactivity"}, {"sequence": "QVQLVESGGGLVQAGGSLLLSCAASGRTFAPYAMGWYRQAPGKERELVAAISSGGGNTYYADSVKGRFTISRDNAKITVYLHMNSLKPEDTAVYYCNAAQRRGGLGYSGQGTQVTVSS", "polyreactivity (PSR sort gate)": "high polyreactivity"}, {"sequence": "QVQLVESGGGLVQAGGSLLLSCAASGSIFDFYGMGWDRQAPGKERELVATITGTGGGTYYADSVKGRFTISRDNAKNTVYLKMNSLKPEDTAVYYCAADYPYGYWRGLFYYWGQGTQVTVSS", "polyreactivity (PSR sort gate)": "low polyreactivity"}, {"sequence": "QVQLVESGGGLVQAGGSLLLSCAASGSTCSYYAMGWYRQAPGKERQLVAAINRSGGSTYYADSVMGRFTISRDNAKNTVYVQMNSLKPEDTAVYSCAALRSKTVSYDRYDYWGQGTQVTVSS", "polyreactivity (PSR sort gate)": "high polyreactivity"}, {"sequence": "QVQLVESGGGLVQAGGSLLLSCAASGSTFIWNAMGWYRQAHGKERELVAAISSGGSTYYADSVKGRFTISRDNAKNTVYLQMNSLKPEDTAVYYCAAEYVYNVWEQRYAVYSTDDYWGQGTQVTVSS", "polyreactivity (PSR sort gate)": "low polyreactivity"}, {"sequence": "QVQLVESGGGLVQAGGSLLLSCAASGSTFNDNAMGWYRQAPGKERELVAAIDSGGITNYADSVKGRFTISRDNAKNTVYLQMNSLKPEDTAVYYCAVEGEYLTPSGRYRLDYWGQGTEVTVSS", "polyreactivity (PSR sort gate)": "low polyreactivity"}, {"sequence": "QVQLVESGGGLVQAGGSLLLSCAASGSTFSFYAMGWYRQAPGKERELVAAIDSGGRTKYADSVKGRFTISRDNAKNTVYLQMNSLKPEDTAVYYCAAVFRGLWLYDYWGQGTQVTVSS", "polyreactivity (PSR sort gate)": "low polyreactivity"}, {"sequence": "QVQLVESGGGLVQAGGSLLLSCAASGSTFVVNAMAWYRQAPGKERELVAAIRNSGSTTYADSVKGRFTISRDNAKNTVYLQMNSLKPEDTAVYYCATDISATVTAVQINPYDYWGQGSQVTVSS", "polyreactivity (PSR sort gate)": "low polyreactivity"}, {"sequence": "QVQLVESGGGLVQAGGSLLLSCAASGSTFYKNAMGWYRQAPGKERELVAAISSGGSTYYADSVKGRFTISRDNAKNTVYLQMNSLKPEDTAVYYCAADYYYIVDYWGQGTQVTVSS", "polyreactivity (PSR sort gate)": "high polyreactivity"}, {"sequence": "QVQLVESGGGLVQAGGSLLLSCAASGYIFWSNTMGWYRQAPGKERELVAAISQSTASTYYADSVKGRFTISRDNAKNTVYLQMNSLKPEDTAVYYCAAYYNFGDYEYDYWGQGTQVTVSS", "polyreactivity (PSR sort gate)": "low polyreactivity"}, {"sequence": "QVQLVESGGGLVQAGGSLLLSCAPSGRTFPLNAMGWSRQAPGKERELVAAITWSGGRTYYADSVKGRFTISRDNAKNTVYLQMNSLKPEDTAVYYCAAKRTTWKIQSGYDYWGKGTQVTVSS", "polyreactivity (PSR sort gate)": "low polyreactivity"}, {"sequence": "QVQLVESGGGLVQAGGSLLLSCDASGLTFGYYVMGWYRQAPGKERELVASITNGGGSTYYADSVKGRFTISRDYAKNTVYLQMNSLKPEDTAVYYCAAGSYLRKFDYWGQGTQVTVSS", "polyreactivity (PSR sort gate)": "high polyreactivity"}, {"sequence": "QVQLVESGGGLVQAGGSLLLSCDASGNTFIENDMGWYIQAHGKERELVDPIDTGGYTYYADSVKGRFTISRDNAKNTVYLQMNSLKPDDTAVYYCTAVGLYLYRYKFGYLGKIGPGYDYWGQGTQVTVSS", "polyreactivity (PSR sort gate)": "low polyreactivity"}, {"sequence": "QVQLVESGGGLVQAGGSLLLSSAPTGITFEGYSMGWSRQAPGKERELVAAIRSSGTSTYYADSVKGRFTISRDNAKNTVYLQMNSLKPDDTAVYYCNRARSSSRYDYWGQGTQVTVSS", "polyreactivity (PSR sort gate)": "low polyreactivity"}, {"sequence": "QVQLVESGGGLVQAGGSLLLSWAASGRSFKYNAMGWDRQAPGKERELVAAISGSGGRTYYADSVKGRFTISRDNAKNTVYLQMNSLIPEDTAVYYCNARYVLYKPDYHRGGRMGYWGQGTQVTVSS", "polyreactivity (PSR sort gate)": "high polyreactivity"}, {"sequence": "QVQLVESGGGLVQAGGSLPLSCAASGFISWGNAMGWSRQAPGKARELVAAISWRDARTYYADSVKGRFTISRDNAKNTVYLQMNSLKPEATAVYYCNAVTAYVSRNLGGYRWFDYWGQGTQVTVSA", "polyreactivity (PSR sort gate)": "low polyreactivity"}, {"sequence": "QVQLVESGGGLVQAGGSLPLSCAASGRIFAFNVMGWYRQAPGKERELVAAISTRDGSTYYADSVKGRFTISRDNAKNTVYLQMNSLTPEDTAVYYCNAVVRYYDWGYWDYDYWGQGTQVTVSS", "polyreactivity (PSR sort gate)": "low polyreactivity"}, {"sequence": "QVQLVESGGGLVQAGGSLPLSCAASGRIFSYYAMGRYRQAPGKERELVASISRSGGSTYYADSVKGRFTISRDNAKNTVYLQMISLKPEDTAVYYCAAYKYVRSYPYDYWGQGTQVTVSS", "polyreactivity (PSR sort gate)": "low polyreactivity"}, {"sequence": "QVQLVESGGGLVQAGGSLPLSCAASGRTFLYNAMGWYRQAPGKERELVAAITKSGGSTYYADSVKGRFTISLDNAKNTVYLQMNTLKPEDTAVYYCAAARRYAYTGGYWGQGTQVTVSS", "polyreactivity (PSR sort gate)": "high polyreactivity"}, {"sequence": "QVQLVESGGGLVQAGGSLPLSCAASGRTFWAYAMGWYRQAPGKERELVAAITTSGGSTNYADSVKGRFTISRDNAKNTVYLQMNSLKPEDTAVYYCNADPTYHVVNGVGYWGQGTQVTVSS", "polyreactivity (PSR sort gate)": "low polyreactivity"}, {"sequence": "QVQLVESGGGLVQAGGSLPLSCAASGSIFDKYTMGWYRQAPGKERELVAAISRDSGSTYYADSVKGRFTISRDNAKNTVYLQMNSLKPEDTAVYYCAARLGYYGYDYWGQGTQVTVSS", "polyreactivity (PSR sort gate)": "low polyreactivity"}, {"sequence": "QVQLVESGGGLVQAGGSLPLSCAASGSIYGANAQGWYRQAPGKERELVAAISSNGDDTYADSVKGRFTISRDNAKNTVYIQMNSLKPEDTAVYYCNKRPWWWGGDDYGGQGTQVTVSS", "polyreactivity (PSR sort gate)": "low polyreactivity"}, {"sequence": "QVQLVESGGGLVQAGGSLPLSCAASGSTFKQNVMGWYIQAPGKERELVAAITSNDDRTYYADSVKGRFTISRDNAKNTFYLQMNSLKPEDTAVYYCAVESLRDVFEYDYWGQGTQVTVSS", "polyreactivity (PSR sort gate)": "low polyreactivity"}, {"sequence": "QVQLVESGGGLVQAGGSLPLSSAASGFTFYRNAMGWYRQVPGKERELVAAITTRGVTTYYADSVKGRFTIARDYAKNTVYVLMNCLKPVDTAVYYFAAKKSLIGDYWGQGTQVTVSS", "polyreactivity (PSR sort gate)": "high polyreactivity"}, {"sequence": "QVQLVESGGGLVQAGGSLPVSCAASGFTIVYYAKGWYRQAPGKERELVADISSEGSTYADSVKGRFTISRDNAKNTVSLQMNSLKPEDTAVYYCPAQPIYSYWRSSLYYYWGQGTQVTVSS", "polyreactivity (PSR sort gate)": "high polyreactivity"}, {"sequence": "QVQLVESGGGLVQAGGSLRFSCAASGFIFIFYAMGWYRQAPGKERELVAGISWSSSSTYYADSVKRRFSISRDNAKNTVYLQMNRLKPEDTAVYYCAKDGLSVSGEYDYWGQGTQVTVSS", "polyreactivity (PSR sort gate)": "low polyreactivity"}, {"sequence": "QVQLVESGGGLVQAGGSLRFSCAASGFTFASNAMGWYRQAPGQERELVAAITSGGRTYYADSVKGRFTISRDNAKNTVYLQMNSLKPEDTAVYYCAKPNGALKRYYYWGQGTQVTVSS", "polyreactivity (PSR sort gate)": "high polyreactivity"}, {"sequence": "QVQLVESGGGLVQAGGSLRFSCAASGIIFRIYAMGWYRQAPGKEREFVAAISGSGDSTYYADSVKGRFTISRDNAKNTVNLQMNSLKPEDSAVYYCAADWTLVYYHEDYWGQGSQVTVSS", "polyreactivity (PSR sort gate)": "low polyreactivity"}, {"sequence": "QVQLVESGGGLVQAGGSLRFSCAASGRIFFWYAMGWYRQAPGKEWELVAAISRDGGTTYYADSVKGRFTISRDNAKNTVYLQMNSLKPEDTAVYYCNAEARSRRYRYDYWGQGTQVNVSS", "polyreactivity (PSR sort gate)": "high polyreactivity"}, {"sequence": "QVQLVESGGGLVQAGGSLRFSCAASGRIFTVNAMGWDRQARGKERELVASITGRGTRTYYADSVKGRFTISRDNAKNTVYLQMNSLKPEDTAVYYCAARAVKQYGNSYDYWGQGTQVTVSS", "polyreactivity (PSR sort gate)": "high polyreactivity"}, {"sequence": "QVQLVESGGGLVQAGGSLRFSCAASGRTFYVYALGWYRQAPGKERELVARIRGRGGITFYADSVKGRFTISRDNAKNTVYLQMNSLKPEDTAVYYCAADFRSNYDYWGQGTQVTVAS", "polyreactivity (PSR sort gate)": "high polyreactivity"}, {"sequence": "QVQLVESGGGLVQAGGSLRFSCAASGSIFGTYAMGWYRQAPGKERELVAAITGNGGRTYYADSVKGRFTISRDNAKNTVYLQMNSLKPEDTAVYYCAKATSRRGFYYWGQGTQVTVSS", "polyreactivity (PSR sort gate)": "high polyreactivity"}, {"sequence": "QVQLVESGGGLVQAGGSLRFSCAASGSIFHYYAMGWYRQAPGKERELVAAISGGSRTKYADSVKGRFTISRDNAKNTVYLQMNSLKPEDTAVYYCAKRYYYPYRYYYWGQGTQVTVSS", "polyreactivity (PSR sort gate)": "high polyreactivity"}, {"sequence": "QVQLVESGGGLVQAGGSLRFSCAASGSIFIANAMGWYRQAPGQERALVAAIDSGGSTNYADSVKGRFTISRDNAKNTVYLQMNSLKPEDTAVYYCADDGTLTAPGGDYWGQGTQVTVSS", "polyreactivity (PSR sort gate)": "high polyreactivity"}]}]}
